The test addresses T1, Podoplanin (PDPN) on PDPN+ B16-F0 murine melanoma cells (mouse (endogenous in B16-F0)) (UniProt Q62011).
T1 sequence: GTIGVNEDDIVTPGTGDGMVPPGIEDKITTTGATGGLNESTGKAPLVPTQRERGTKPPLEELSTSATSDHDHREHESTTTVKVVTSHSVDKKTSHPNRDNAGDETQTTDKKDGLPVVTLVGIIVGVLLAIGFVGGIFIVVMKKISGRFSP

B1: C-type lectin-like receptor 2 (CLEC-2) on platelets of WT C57BL/6J mice (receptor)
chain: MQDEDGYITLNIKPRKQALSSAEPASSWWRVMALVLLISSMGLVVGLVALGIMSVTQQKYLLAEKENLSATLQQLAKKFCQELIRQSEIKTKSTFEHKCSPCATKWRYHGDSCYGFFRRNLTWEESKQYCTEQNATLVKTASQSTLDYIAERITSVRWIGLSRQNSKKDWMWEDSSVLRKNGINLSGNTEENMNCAYLHNGKIHPASCKERHYLICERNAGMTRVDQLL
As for B1, the percent of tumour cells associated with platelets, counted under a fluorescence microscope (WT platelets mixed with PDPN+ B16-F0 cells, 1:200 tumour cells:platelets, 20 min at 37 °C) was 65%.
